# Measured values reported in patent US20210210159A1, “COMPUTATIONAL PROTEIN DESIGN USING TERTIARY OR QUATERNARY STRUCTURAL MOTIFS” (Trustees of Dartmouth College, priority 2018, published 2021).
# B1: design: TERM-based surface-redesigned mCherry, 48 of 64 variable surface positions changed (SEQ ID NO. 2) (protein)
# chain: MVSKGEEDNMAIIKEFMTFEVEMEGTVNGHPFRIRGSGGGDPYEGTQTARLEVVEGGPLPFAWDILSPQFMYGSKAYVKHPADIPDYLKLSFPEGFTWTRTMEFEDGGTVKVTQTSTLKDGKFHYKVKLTGSNFPSDGPVMQKKTMGWEASTERMRPKDGKLEGEIDQELRLKDGGYYRARVRTTYKAKKPVQLPGAYTVRIRLEITSHNEDYTEVEQTETAKGEHSTGGMDELYK
# modifications: TERM-based designed sequence
# How the values were obtained:
# [1] = Fast Protein Liquid Chromatography / size-exclusion chromatography, oligomeric state; format: physicochemical; conditions: concentration of at least 10 μM
# Source text: Based on the standards, the dimeric protein would be expected to elute at the volume indicated by a dotted line, which eliminates the possibility of design oligomerization.
# [2] = Chemical denaturation by guanidinium hydrochloride (GuHCl), chromophore absorbance at 587 nm; format: physicochemical; conditions: compared with original mCherry
# Source text: Degree of foldedness was monitored via chromophore absorbance at 587 nm. Because the chromophore rapidly […], this constitutes a sensitive metric of structure. Data are fit to the Hill equation, with the concentration of half denaturation noted in the legend.
# Thus, by all measures, the designed protein, which differs from the original mCherry in 48 positions, preserved the starting structure and even function.
molecule,measurement,setting,value
B1,oligomeric state in solution,[1],monomeric
same,protection of chromophore on chemical denaturation,[2],approximately as well as the original mCherry
